{
  "source": "patent US20210269480A1",
  "about": "(published 2021)",
  "note": "*1 amine or outer side, *2 acyl side, *3 side chain or, on linkers, in order; H or OH if unused. Bridges are numbered along the chain shown (N, C = ends). Where no end group is shown, it is not given here. [ ]: non-standard residue; d: D form. TATA = O=C(CC[*:1])N1CN(C(=O)CC[*:2])CN(C(=O)CC[*:3])C1; Phe(4-COOH) = N[C@@H](Cc1ccc(C(=O)O)cc1)C(=O)O; 1Nal = N[C@@H](Cc1cccc2ccccc12)C(=O)O; 2Nal = N[C@@H](Cc1ccc2ccccc2c1)C(=O)O; hArg = N=C(N)NCCCC[C@H](N)C(=O)O; 2Pal = N[C@@H](Cc1ccccn1)C(=O)O; Aze = O=C(O)[C@@H]1CCN1; βAla = NCCC(=O)O; Sar = CNCC(=O)O",
  "data": [
    {"biological_target": "T1, human Nectin-4 (human, UniProt Q96NY8 32-349)", "T1 construct": "a Gly32-Ser349 FLAG construct is described only under the SPR assay; also called PVRL4", "T1 sequence (looked up)": "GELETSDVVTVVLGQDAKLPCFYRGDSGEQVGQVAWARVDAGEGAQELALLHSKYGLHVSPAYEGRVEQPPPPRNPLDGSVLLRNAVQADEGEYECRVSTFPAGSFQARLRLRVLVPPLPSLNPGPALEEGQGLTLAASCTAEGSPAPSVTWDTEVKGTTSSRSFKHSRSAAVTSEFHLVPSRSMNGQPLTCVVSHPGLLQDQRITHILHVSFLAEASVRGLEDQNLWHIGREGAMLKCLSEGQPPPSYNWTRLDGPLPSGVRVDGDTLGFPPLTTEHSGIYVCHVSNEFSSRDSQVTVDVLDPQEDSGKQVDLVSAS", "test": "FP competition, tracer SEQ ID NO 217", "protocol": "Peptides were diluted to an appropriate concentration in assay buffer as described in the direct binding assay with a maximum of 5% DMSO, then serially diluted 1 in 2. […] Measurements were conducted as for the direct binding assay, however the gain was determined prior to the first measurement. Data analysis was in Systat Sigmaplot version 12.0 where the mP values were fit to a user defined cubic equation to generate a Ki value: […]", "units": {"Ki": "nM"}, "values": [
      {"binder": "[βAla][Sar][Sar][Sar][Sar][Sar]CPF[dD]CM[hArg]NWSWPIWC (linker 7-11-21 via TATA)", "note": "[BCY7556]", "Ki": 26.1},
      {"binder": "[βAla][Sar][Sar][Sar][Sar][Sar]CPF[dA]CM[hArg]NWSWPIWC (linker 7-11-21 via TATA)", "note": "[BCY7557]", "Ki": 22.5},
      {"binder": "{Ac-βAla}-[Sar][Sar][Sar][Sar][Sar]CPF[dD]CM[hArg]NWSWPIWC (linker 6-10-20 via TATA)", "note": "[BCY7558]", "Ki": 21.9},
      {"binder": "{Ac-βAla}-[Sar][Sar][Sar][Sar][Sar]CPF[dA]CM[hArg]NWSWPIWC (linker 6-10-20 via TATA)", "note": "[BCY7559]", "Ki": 17},
      {"binder": "Ac-CPF[dD]CK[hArg]NWSTPIWC (linker 1-5-15 via TATA)", "note": "[BCY7821]", "Ki": 84},
      {"binder": "Ac-CPF[dD]CM[hArg]KWSTPIWC (linker 1-5-15 via TATA)", "note": "[BCY7822]", "Ki": 27},
      {"binder": "Ac-CPF[dD]CM[hArg]NWSTPPWC (linker 1-5-15 via TATA)", "note": "[BCY8036]", "Ki": 7.5},
      {"binder": "Ac-CPF[dD]CL[hArg]NWSTPPWC (linker 1-5-15 via TATA)", "note": "[BCY8038]", "Ki": 8},
      {"binder": "Ac-CPF[dD]CL[hArg]NWSTPIWC (linker 1-5-15 via TATA)", "note": "[BCY8039]", "Ki": 21.4},
      {"binder": "Ac-CPY[dD]CM[hArg]NWSTPIWC (linker 1-5-15 via TATA)", "note": "[BCY8040]", "Ki": 10.8},
      {"binder": "Ac-CPF[dD]CM[hArg]NWSTPKWC (linker 1-5-15 via TATA)", "note": "[BCY8085]", "Ki": 15.1},
      {"binder": "Ac-[dD]CPFGCMKNWSWPIWC (linker 2-6-16 via TATA)", "note": "[BCY7606]", "Ki": 34},
      {"binder": "Ac-CPFGCMKNWSWPIWC (linker 1-5-15 via TATA, also called 80-09-02-N008)", "note": "[BCY7390]", "Ki": 17.1},
      {"binder": "Ac-CPFGCMKNWSDPIWC (linker 1-5-15 via TATA, also called 80-09-02-N022)", "note": "[BCY7540]", "Ki": 357},
      {"binder": "Ac-CPFGCMKNWSFPIWC (linker 1-5-15 via TATA)", "note": "[BCY7589]", "Ki": 34.5},
      {"binder": "Ac-CPFGCMKNWSYPIWC (linker 1-5-15 via TATA)", "note": "[BCY7590]", "Ki": 38.5},
      {"binder": "Ac-CPFGCMKNWSWPIFC (linker 1-5-15 via TATA)", "note": "[BCY7596]", "Ki": 353},
      {"binder": "Ac-CPFGCMKNWSWPIYC (linker 1-5-15 via TATA)", "note": "[BCY7597]", "Ki": 169},
      {"binder": "Ac-CGFGCMKNWSWPIWC (linker 1-5-15 via TATA)", "note": "[BCY7607]", "Ki": 77},
      {"binder": "Ac-CPFGCMPNWSWPIWC (linker 1-5-15 via TATA)", "note": "[BCY7614]", "Ki": 21},
      {"binder": "Ac-CPFGCMSNWSWPIWC (linker 1-5-15 via TATA, also called 80-09-02-N047)", "note": "[BCY7658]", "Ki": 33.6},
      {"binder": "Ac-CPFGCMDNWSWPIWC (linker 1-5-15 via TATA, also called 80-09-02-N048)", "note": "[BCY7659]", "Ki": 77.9},
      {"binder": "Ac-CPFGCMKDWSWPIWC (linker 1-5-15 via TATA, also called 80-09-02-N050)", "note": "[BCY7661]", "Ki": 29.4},
      {"binder": "Ac-CPFGCMKHWSWPIWC (linker 1-5-15 via TATA, also called 80-09-02-N051)", "note": "[BCY7662]", "Ki": 14.8},
      {"binder": "Ac-CPFGCMKNWSTPIWC (linker 1-5-15 via TATA, also called 80-09-02-N054)", "note": "[BCY7665]", "Ki": 24.1},
      {"binder": "Ac-C[Aze]FGCMKNWSWPIWC (linker 1-5-15 via TATA)", "note": "[BCY7608]", "Ki": 42},
      {"binder": "Ac-CPFK(Ac)CMKNWSWPIWC (linker 1-5-15 via TATA)", "note": "[BCY7611]", "Ki": 205},
      {"binder": "ACPFGCMKNWSWPIWCA (linker 2-6-16 via TATA, also called 80-09-02-N002)", "note": "[BCY428]", "Ki": 61},
      {"binder": "Ac-CP[2Pal]GCMKNWSWPIWC (linker 1-5-15 via TATA)", "note": "[BCY7620]", "Ki": 246},
      {"binder": "Ac-QKWCAPLSDYWCNRIC (linker 4-12-16 via TATA)", "note": "[BCY7392]", "Ki": 27.2},
      {"binder": "Ac-AKWCAPLSDYWCNRIC (linker 4-12-16 via TATA)", "note": "[BCY7622]", "Ki": 31},
      {"binder": "Ac-QAWCAPLSDYWCNRIC (linker 4-12-16 via TATA)", "note": "[BCY7623]", "Ki": 21},
      {"binder": "Ac-QKACAPLSDYWCNRIC (linker 4-12-16 via TATA)", "note": "[BCY7624]", "Ki": 571},
      {"binder": "Ac-QKWCAALSDYWCNRIC (linker 4-12-16 via TATA)", "note": "[BCY7625]", "Ki": 141},
      {"binder": "Ac-QKWCAPLADYWCNRIC (linker 4-12-16 via TATA)", "note": "[BCY7627]", "Ki": 101},
      {"binder": "Ac-QKWCAPLSDYWCARIC (linker 4-12-16 via TATA)", "note": "[BCY7631]", "Ki": 19},
      {"binder": "Ac-QKWCAPLSDYWCNAIC (linker 4-12-16 via TATA)", "note": "[BCY7632]", "Ki": 123},
      {"binder": "Ac-[dA]KWCAPLSDYWCNRIC (linker 4-12-16 via TATA)", "note": "[BCY7634]", "Ki": 24},
      {"binder": "Ac-Q[dA]WCAPLSDYWCNRIC (linker 4-12-16 via TATA)", "note": "[BCY7635]", "Ki": 15.2},
      {"binder": "Ac-QK[dA]CAPLSDYWCNRIC (linker 4-12-16 via TATA)", "note": "[BCY7636]", "Ki": 522},
      {"binder": "Ac-Q[dD]WCAPLSDYWCNRIC (linker 4-12-16 via TATA)", "note": "[BCY7993]", "Ki": 38},
      {"binder": "ACPFGCMRNWSWPIWCA (linker 2-6-16 via TATA, also called 80-09-02-N003)", "note": "[BCY429]", "Ki": 42.6},
      {"binder": "Ac-QKWCAPL[dA]DYWCNRIC (linker 4-12-16 via TATA)", "note": "[BCY7639]", "Ki": 490},
      {"binder": "QKWCAPLSXYWCNRIC (N-terminal Ac; TATA on 3 Cys)", "note": "[BCY7640]", "Ki": 86},
      {"binder": "Ac-QKWCAPLSDYWC[dA]RIC (linker 4-12-16 via TATA)", "note": "[BCY7643]", "Ki": 19},
      {"binder": "Ac-[Phe(4-COOH)]CPFGCMKNWSWPIWC (linker 2-6-16 via TATA)", "note": "[BCY7656]", "Ki": 71.9},
      {"binder": "ACWPLDPYWCGRICA (linker 2-10-14 via TATA)", "note": "[BCY430]", "Ki": 310},
      {"binder": "Ac-CPFGCM[hArg]NWSWPIWC (linker 1-5-15 via TATA)", "note": "[BCY7660]", "Ki": 26.2},
      {"binder": "Ac-CPFGCMKN[1Nal]SWPIWC (linker 1-5-15 via TATA)", "note": "[BCY7663]", "Ki": 25.5},
      {"binder": "Ac-CPFGCMKN[2Nal]SWPIWC (linker 1-5-15 via TATA)", "note": "[BCY7664]", "Ki": 70},
      {"binder": "Ac-CPFGCMKNWSWPI[2Nal]C (linker 1-5-15 via TATA)", "note": "[BCY7667]", "Ki": 27.3},
      {"binder": "CPF[dD]CM[hArg]NWSTPIWC (linker 1-5-15 via TATA)", "note": "[BCY7793]", "Ki": 42}
    ]}
  ]
}
